Target: the molecule itself
Assay: native MS; 10 μM monomer in 10 mM aqueous ammonium acetate, pH 6.8; nano-electrospray, modified Orbitrap (Exactive Plus / Q-Exactive EMR); oligomeric state of the protein with itself

Row | Protein | stoichiometry N
1 | GroES (natural protein, Escherichia coli, GroES, co-chaperonin of Escherichia coli; homo-heptamer of 10.4 kDa subunits; The printed subunit mass of 10.4 kDa fits the whole protein; also called GroES heptamer; co-chaperonin GroES; source: over-expressed in E. coli strain MC1009, purified as described previously) MNIRPLHDRVIVKRKEVETKSAGGIVLTGSAAAKSTRGEVLAVGNGRILENGEVKPLDVKVGDIVIFNDGYGVKSEKIDNEEVLIMSESDILAIVEA | 7
2 | gp31 (natural protein, bacteriophage T4, gp31, co-chaperonin encoded by bacteriophage T4, structural homologue of GroES; heptamer of identical 12 kDa subunits; The printed subunit mass of 12 kDa fits the whole protein; also called gp31 heptamer; source: over-expressed in E. coli strain MC1009, purified as described previously) MSEVQQLPIRAVGEYVILVSEPAQAGDEEVTESGLIIGKRVQGEVPELCVVHSVGPDVPEGFCEVGDLTSLPVGQIRNVPHPFVALGLKQPKEIKQKFVTCHYKAIPCLYK | 7

Reference: article PMC6318259, “Distinct Stabilities of the Structurally Homologous Heptameric Co-Chaperonins GroES and gp31” (Journal of the American Society for Mass Spectrometry, 2018)
